± gives the uncertainty stated by the source.
Assay: amyloid nucleation score (Sup35N fusion, yeast selection) (log enrichment); library NNK1; higher = more nucleation; inactive = no reads after selection
Method in brief: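 Random libraries were run with three technical output replicates. In each, psi-negative yeast expressing Sup35N fused to peptides of 20 random codons were induced 24 hours with 100 μM copper sulfate and grown 7 days at 30°C on medium lacking adenine and uracil, and input and output plasmid inserts were Illumina-sequenced. The nucleation score is the DiMSum log enrichment of output over input reads, centred on the mode score of non-aggregating sequences, and sequences under 100 input reads were excluded.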

Substance | amyloid nucleation score
FSVLVPMYK | -0.361 ± 0.6
FSVRGYSNLSAEDFINLKVP | -0.522 ± 1.4
FSVYVGVILCVSATVDVWAC | 1.87 ± 0.23
FSYLSFCPVVSFESTFPTPM | 5.29 ± 0.066
FSYRSIWLRVLRV | -0.111 ± 0.4
FTGDVPEDTLRLSSFENMRR | 0.384 ± 0.53
FTISSKLRYIGTGVINGPVD | -0.397 ± 0.56
FTKFRYRTLINSYNFWGTGA | -0.115 ± 1.4
FTLCQASYMN | -0.655 ± 0.67
FTLIIRDLMFSRHEFRVHAG | -0.213 ± 0.39
FTLSKTILDRSFLWIQGLWS | -0.354 ± 0.81
FTMKMGYMVAFIW | -0.394 ± 0.25
FTNRTIFFV | -0.023 ± 0.91
FTSSIMEFNESQWVNFTFIW | 4.42 ± 0.053
FTSSVIILCIFYWNGLVRIF | -0.505 ± 1.5
FTYIISRISFMRDWVF | -0.257 ± 1.4
FVAISVSTIRQCGVCRGGTC | 4.29 ± 0.12
FVCRFQYFSRYATNYFYVWC | inactive
FVFSGFYT | 0.353 ± 0.21
FVGEN | 0.281 ± 0.52
FVGMSRFFKVH | -0.629 ± 0.39
FVGRSVCAKMTPHRLTAIGP | -0.082 ± 0.67
FVGSSFGDDFISVSIHSWRP | inactive
FVIFSIELCGHRATSSSFNL | 5.565 ± 0.047
FVKFVTSEAFDHVLRTNWN | inactive

Substance | amyloid nucleation score
FVKVAPANKGISGKRDLCKL | 0.215 ± 0.3
FVLQKGYK | 0.2 ± 0.59
FVMLGWFSRNIGLYEVFVFT | 0.502 ± 0.36
FVSLNTIFRAYPQIHYRLVR | inactive
FVSVAQVEE | -1.2 ± 1
FVSVCD | -0.049 ± 1
FVSVWDILL | -0.049 ± 0.27
FVVIEILDFSPFDHCFIILE | 1.26 ± 0.48
FVVLSRFACRLRLTR | 0.853 ± 0.55
FWANH | inactive
FWLCRYTIGSRLLFVVQTST | 0.986 ± 0.65
FWNMWAYEMRFVLRNYAL | -0.908 ± 0.43
FWSHHPHTNENMCTYTNLSW | inactive
FWSMIGLWILDC | 0.031 ± 0.25
FWSWSV | -0.222 ± 0.42
FWVAIRVRVIWVNKKNDGCI | -0.147 ± 0.66
FWVQNMVGNFFNYYFDRGNQ | 7.791 ± 0.045
FYARMLYYA | inactive
FYFRNSSGF | 2.49 ± 0.58
FYGEGNFRGKTYVFTVPVVK | -1.21 ± 2.4
FYGVRVTGAAFRALVMVSPR | 0.616 ± 1.1
FYIVFFTCLASSS | 1.94 ± 0.29
FYKLVSLREIGMIQVIRGLD | -0.395 ± 0.47
FYKQLYSAEHKKFSCTAFVK | inactive
FYLGPCYAVIWVNFQLPLGV | 0.596 ± 0.33

Substance | amyloid nucleation score
FYMRSFLFDFQLFHVVGIWF | -0.929 ± 0.39
FYQLYLINSTCHGRSRYILS | 0.155 ± 0.51
FYVPDWYNCSCIIWGRDACA | 4.19 ± 0.056
FYYGSLPYCVTKRFRDFGNQ | 3.02 ± 0.18
FYYVRLDARMVDSSSFV | -0.542 ± 0.28
FYYYSEFLGPIVYPQHDLLL | -0.1 ± 1.1
GAFWGFFFKCLSTTLNNSWL | inactive
GAIDRGCVDLARTCSLGLTG | 0.508 ± 0.56
GAKYMNMRIRRTSFGSAYQS | 0.335 ± 0.48
GALSNSSMWFGMYVNPLGTY | inactive
GALVYAFYAAS | 0.525 ± 0.89
GASCTLISCLLLLHSAWSLS | 0.237 ± 0.59
GAVIVCVYMQALVVIDRASA | -0.62 ± 0.94
GCEFWSYTLTLRGKNACNKL | -0.234 ± 0.42
GCFASTSNTRC | 1.05 ± 0.66
GCFSPITQWSMWHVWRVRRQ | 0.49 ± 0.97
GCGMDGWDVQ | 0.103 ± 0.25
GCLRVSDTIRGMPRQSLDWA | 0.445 ± 0.28
GCVLFDLSHL | -1.92 ± 2.4
GCVTYIYGCMLYCEEAFR | 5.17 ± 0.085
GCYSQNICCVTCIKRRSIVS | -1.02 ± 0.69
GDANLGKQLWRGWNVG | 0.228 ± 1.2
GDELKRVWYLGTLSRMRGTE | -0.574 ± 0.62
GDIVQLGPKFCKLYLCIWNC | 6.369 ± 0.056
GDSWRSYLRILGTYMVRRWC | 0.244 ± 0.54

Substance | amyloid nucleation score
GDVPYRNMHCPRFLMREMVV | 0.354 ± 0.25
GDVSRQTVEV | -0.094 ± 0.43
GEERFYSLKYCCKGRLWRPG | 0.179 ± 0.43
GEHSLSIICCVLCTVGDGPN | 7.611 ± 0.058
GEIGKKNY | 1.2 ± 0.35
GFALECESEVWSCYYTIRII | 0.444 ± 0.43
GFKRRYCDNISAIHPDSGCK | inactive
GFLSATWCSQWSIILVKERG | 1.48 ± 0.45
GFLTETDNCTICIFHMFVDN | 6.201 ± 0.059
GFNIDT | 0.689 ± 1.2
GFRLMLFVRTM | 1.04 ± 0.45
GFRPEMHGV | inactive
GFTTMEDCGPREGPTIVDDK | -0.149 ± 1.3
GFVEVNTCLKEVSLPSNMPS | 0.714 ± 0.5
GFVTWPLSRSPGSPGCAALM | 0.015 ± 0.39
GFWAKSPLAGHSYKGYQLWA | 1.62 ± 0.57
GFWDFWVGRCLSSYVQFANL | 0.28 ± 0.48
GGCMV | 0.493 ± 0.42
GGIGDQVITRNVGRPREYQR | 1.34 ± 0.76
GGLGTPFFHAPSHMWVKW | -0.551 ± 0.55
GGRKKQLLDNYKGTYLVARI | -0.096 ± 1.1
GGRLEKRTCASCTSGQVVGV | 0.294 ± 0.42
GGRLNQHLRSNNTGTHHPGY | -0.533 ± 0.31
GGRLTRQRIVSVLLYVGVAG | 0.077 ± 0.69
GGWGRGECPYSHTKWYVKSG | -0.999 ± 0.94

Substance | amyloid nucleation score
GHFRSASRKYALTV | -0.619 ± 0.51
GHLWWSVLLVPLFTVGSTSV | 0.399 ± 0.56
GHSRSSGLLKKFCVKSRQDA | 0.234 ± 0.66
GIEKLHDRITSLIFLSMGRR | 1.8 ± 0.19
GILVCLNYLGLFVVYHGFVW | 1.33 ± 0.56
GIMTHVGRPKVTGCGRGKCT | -0.165 ± 1.6
GISCFHW | 1.98 ± 0.18
GISSVG | 0.677 ± 0.4
GIWSNCKYVFSGIMSSYMVS | 0.739 ± 0.16
GKCFVVMWRVLGVDSVLMEV | -0.414 ± 0.25
GKCVTWQASCLQCSKSNWYQ | 0.995 ± 0.81
GKFLRGGHLVFRWATLYLSV | -0.604 ± 0.97
GKGWYTDSMCRIRMMNARLL | 0.233 ± 0.34
GKIYWLLLQTDKDRRFLTMR | -0.744 ± 0.46
GKLPYVFRDCNKTVLVMALF | 0.947 ± 0.73
GKMMVFRVFFRFVPSESWVI | -0.638 ± 0.52
GKPDKVHARGWFTLVNRWLR | 0.399 ± 0.73
GKRIYPWVLNRSH | -0.209 ± 0.28
GKSNLARHAPNLEVTMRGTE | 1.27 ± 0.42
GKSRS | 0.784 ± 0.49
GKSWFGYCVSLVCMSWVLSD | 0.67 ± 1.2
GKVFVVSVKCNEVVDFGWCQ | 0.073 ± 0.28
GKYFLSICHDT | 0.033 ± 0.36
GLCDNHINVVVVS | 0.788 ± 0.81
GLFNSDRVNQWPPGPCRDYV | 0.5 ± 0.28

Substance | amyloid nucleation score
GLFYW | 1.06 ± 0.72
GLHKYPCYPTNSRYVVVINM | 3.27 ± 0.066
GLMGLFVKWYNVVQIFQSRM | -0.437 ± 0.61
GLMNLVSDRMSWLNEV | 0.485 ± 0.84
GLRWYQFEPTQG | 0.126 ± 0.38
GLSGTSALPPGIS | 0.318 ± 0.79
GLSLIA | 0.983 ± 0.76
GLSQKVGKPAAALLRTMVSD | -0.309 ± 0.27
GLTPMRHN | -1.01 ± 1.1
GLTRFGGPSTMIFMDL | -0.201 ± 0.8
GLWMWEEVILISTLKLFVLV | 0.139 ± 0.6
GLYKYYRSLILSLVSFNFS | 1.18 ± 0.16
GLYLDFGYSGCYGKKL | 5.67 ± 0.082
GMAVFV | 0.18 ± 1.1
GMEFMIMGNLVITGVIDKCH | -0.262 ± 0.39
GMGGGICSSEKMRCGNVEGV | -0.857 ± 0.34
GMYRVNSWIMSL | inactive
GNALYICRF | 0.572 ± 0.39
GNANVKCGVRAISDNRARRI | 0.003 ± 0.43
GNDNCVRHGGRSSSRCLMKL | inactive
GNFKAMWFYPYRRCWQCT | -0.944 ± 1.1
GNGHWQQVG | 0.001 ± 0.33
GNLFITACFHAFVIWFHNGN | inactive
GNSSNAMKFEIHISSDHVAY | 0.845 ± 0.14
GNTSMILSPA | -0.511 ± 1.1

Substance | amyloid nucleation score
GNVAWYTSIGCGGMILWADF | -0.124 ± 0.76
GPCNTRSCV | -0.037 ± 0.43
GPPSLYTWTAYCELSRRPEG | 0.515 ± 0.66
GPPSWSELDFHYCVGGWFYP | -0.456 ± 0.56
GPSVPLGVFEKKTAFLKKTL | -0.328 ± 0.79
GQAWKDAVQNYDMLAYMLKG | -0.375 ± 0.54
GQEVHISIVNVLQFEYNRYD | 6.074 ± 0.05
GQFEFCMFAQYGAS | -1.14 ± 2.4
GQIGACVPLIGVAMGYLS | -0.418 ± 1.5
GQLLCWVASNYEGFNWVYKI | -0.161 ± 0.53
GQMGPMKREDGVLFVVTREN | -0.255 ± 1.1
GRAYGSVCILRLGC | 0.835 ± 0.63
GRDRSWDIRWLYTLTEPTWH | -1.62 ± 2.7
GREVGYVKLMDRPWPYRPAE | 0.191 ± 0.44
GRFKWCGCNNTLWVGISRN | 1.9 ± 0.15
GRGLADISYVYRDVWICLAI | 0.83 ± 0.43
GRHRMVWGH | 0.345 ± 0.93
GRLHRRDMIGRHVDDSGPMS | inactive
GRLIGDSWLGYTKSGPGRKR | inactive
GRLTLSRGRCCQGSLNTVYP | 0.007 ± 0.75
